Experimental data: PMC314469, “Protein Interaction Networks by Proteome Peptide Scanning” (PLoS Biology, 2004)

T1: Abp1 SH3 (ABP1_YEAST), P15891
T1 chain: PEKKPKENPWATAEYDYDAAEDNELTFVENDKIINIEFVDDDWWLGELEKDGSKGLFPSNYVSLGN


Target: T1, Abp1 SH3 (ABP1_YEAST), P15891
Assay: SPOT array

| Binder | normalised SPOT signal, Boehringer light units (BLU); mean over the file's lines of this peptide |
| --- | --- |
| SVRVQGEPLDPKRP [YGL027C 137-150] | 80 |
| TSPHTENFQIPSKP [YBR058C 192-205] | 66.6 |
| TKVTNSKFRTPLRP [YBL009W 142-155] | 137 |
| TLEYLRSPKLYKP [YJR024C 74-86] | 193 |
| TIKRKRAYSLPLRP [YKR098C 130-143] | 133 |
| TSKMLKPPKQRRP [YDR389W 475-487] | 617 |
| TPPLESGPLFKRP [YDR379W 561-573] | 55.6 |
| TFEEFQSPIYRKP [YIL110W 72-84] | 98.3 |
| TSKHWVLPPRPRP [YKL109W 65-77] | 3940 |
| TIADTLQPGLPHKP [YJL045W 457-470] | 127 |
| TIWNTIIKFDPGRP [YKL178C 248-261] | 180 |
| TMNTIYVPPLRRP [YGR127W 236-248] | 3360 |
| STSSENRLRTPLKP [YGL021W 216-229] | 76.6 |
| SVQQSQILIQPERP [YCR033W 957-970] | 73 |
| SYPGSTRITLPRRP [YBR122C 34-47] | 568 |
| TKKAKIIFTAPTRP [YIR002C 128-141] | 87.4 |
| TKFDDEPPLADKP [YML109W 280-292] | 133 |
| TNSNVPDPSTPSKP [YML016C 58-71] | 78.1 |
| SYPSAIQNVQPRKP [YFR022W 627-640] | 105 |
| TNMEFQYPGTSKP [YLR249W 670-682] | 93.7 |

| Binder | normalised SPOT signal, Boehringer light units (BLU); mean over the file's lines of this peptide |
| --- | --- |
| TSGPHGSPDFFKP [YBR208C 1266-1278] | 64.2 |
| TDIHKEDPVDKKP [YML061C 94-106] | 200 |
| TLRLLYNPSLSKP [YHR100C 9-21] | 61 |
| TDMVLIPAGVPRKP [YKL085W 88-101] | 122 |
| TFTGLIGMNDPPRP [YGL167C 571-584] | 83.7 |
| TAGHKLSVRVPTKP [YDL227C 82-95] | 638 |
| TDELSKFPFIDKP [YKR086W 737-749] | 42.7 |
| SVLAPYLPFLMKP [YHR099W 870-882] | 8.6 |
| THTNLAPPPTMKP [YHR102W 753-765] | 136 |
| TKLSTHKASSPSRP [YHR102W 715-728] | 170 |
| TKSEYTNAELPAKP [YMR011W 36-49] | 67.7 |
| TKSNGKDKSRPPRP [YIL095W 739-752] | 141 |
| TLTSSSNPTIPKP [YBL047C 1258-1270] | 129 |
| TEKHELIIPTPSKP [YCL027W 383-396] | 57 |
| TLITFMVPRFDKP [YBR115C 740-752] | 0 |
| TMFSGVSAFVPNRP [YJR061W 698-711] | 451 |
| THALGAAIDPPRRP [YCL048W 21-34] | 53.7 |
| TKVSNEYPNSPKP [YGL122C 280-292] | 146 |
| TNIIDKGVQSPPKP [YDR176W 125-138] | 140 |
| TPLSKPKPFMHKP [YBL031W 191-203] | 11300 |

Next, values leading:

| normalised SPOT signal, Boehringer light units (BLU); mean over the file's lines of this peptide | Binder |
| --- | --- |
| 54.1 | TSLSIVRPNDSKP [YMR185W 853-865] |
| 90.3 | SYNINSDPVITRP [YPR022C 958-970] |
| 62.4 | SVVISKNPDFFKP [YOR160W 317-329] |
| 388 | SVASLKRVIVPDKP [YNL020C 51-64] |
| 1030 | TGVSIKNPRPSRP [YPR096C 5-17] |
| 109 | TAIRTVMPNLLKP [YOR118W 248-260] |
| 102 | TEEEIKYLEEPYKP [YPL088W 324-337] |
| 36.5 | TDSGRNGPRSGKP [YNL251C 479-491] |
| 65.4 | TDGNEEKPLLPTRP [YPR171W 199-212] |
| 140 | SYILEELPIHLRP [YPL110C 407-419] |
| 113 | TFDVPASPQSKKP [YOL153C 56-68] |
| 1330 | TKAKKEKPKPPKP [YMR044W 280-292] |
| 108 | TDVTFSYPGAQKP [YPL226W 815-827] |
| 749 | TNGPRYSPQNPRP [YMR124W 350-362] |
| 124 | TRKSVNIKSWPLKP [YNL226W 110-123] |
| 54 | TLAKELYPGNFRP [YPL015C 81-93] |
| 40.3 | TNTVDVTPKENKP [YOL148C 219-231] |
| 240 | SVQNAKFPRASKP [YPL160W 891-903] |
| 216 | SVYSNYLPKGNRP [YMR167W 278-290] |
